Laboratory results: PMC2602784

What was measured:
Assay in all cases: EMSA
LldR G63A = target: T1, LldR G63A (Corynebacterium glutamicum ATCC 1332 …, UniProt Q8NLM6 1-231, G63A)
T1 sequence: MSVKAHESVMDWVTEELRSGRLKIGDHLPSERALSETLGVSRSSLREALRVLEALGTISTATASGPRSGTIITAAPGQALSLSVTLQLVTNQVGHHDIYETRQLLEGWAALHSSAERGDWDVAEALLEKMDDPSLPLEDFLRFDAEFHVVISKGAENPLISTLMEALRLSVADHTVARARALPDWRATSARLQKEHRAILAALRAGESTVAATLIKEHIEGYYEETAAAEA

LldR R42A = target: T2, LldR R42A (Corynebacterium glutamicum ATCC 1332 …, UniProt Q8NLM6 1-231, R42A)
T2 sequence: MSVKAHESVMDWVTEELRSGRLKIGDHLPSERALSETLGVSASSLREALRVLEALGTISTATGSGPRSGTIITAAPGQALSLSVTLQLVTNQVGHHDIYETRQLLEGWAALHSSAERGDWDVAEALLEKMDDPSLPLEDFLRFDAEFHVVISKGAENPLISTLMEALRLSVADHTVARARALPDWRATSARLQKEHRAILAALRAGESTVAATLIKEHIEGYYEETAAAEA

LldR R32A = target: T3, LldR R32A (Corynebacterium glutamicum ATCC 1332 …, UniProt Q8NLM6 1-231, R32A)
T3 sequence: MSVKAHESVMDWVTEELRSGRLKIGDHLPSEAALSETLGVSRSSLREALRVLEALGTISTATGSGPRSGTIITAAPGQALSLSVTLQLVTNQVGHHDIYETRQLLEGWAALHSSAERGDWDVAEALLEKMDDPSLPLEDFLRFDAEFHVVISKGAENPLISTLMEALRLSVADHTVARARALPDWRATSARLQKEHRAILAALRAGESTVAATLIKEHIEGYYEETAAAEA

LldR K4A = target: T4, LldR K4A (Corynebacterium glutamicum ATCC 1332 …, UniProt Q8NLM6 1-231, K4A)
T4 sequence: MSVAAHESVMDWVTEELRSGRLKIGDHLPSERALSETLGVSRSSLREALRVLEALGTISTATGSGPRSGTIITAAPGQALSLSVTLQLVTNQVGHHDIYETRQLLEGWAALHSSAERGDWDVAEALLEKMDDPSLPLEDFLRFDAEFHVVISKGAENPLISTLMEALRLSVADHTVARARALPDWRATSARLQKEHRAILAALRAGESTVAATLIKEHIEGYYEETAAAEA

Measured: binding result

B1: cgl2917-site1 (dsDNA)
DNA 1: TTGTGGTCTGACCATGA
DNA 2: TCATGGTCAGACCACAA
no binding: LldR G63A | LldR R42A | LldR R32A | LldR K4A
